Measurements reported in the DeepSol protein solubility set.

Assay: soluble on expression in E. coli; label from the status in PepcDB or PDB records

Soluble on expression in E. coli, soluble:
MRTGKQYLESLNDGRVVWVGNEKIDNVATHPLTRDYAERVAQFYDLHHRPDLQDVLTFVDADGVRRSRQWQDPKDAAGLRVKRKYHETILREIAAGSYGRLPDAHNYTFTTYADDPEVWEKQSIGAEGRNLTQNIHNFLKLLREKDLNCPLNFVDPQTDRSSDAAQARSPNLRIVEKTDDGIIVNGVKAVGTGIAFGDYMHIGCLYRPGIPGEQVIFAAIPTNTPGVTVFCRESTVKNDPAEHPLASQGDELDSTTVFDNVFIPWEQVFHIGNPEHAKLYPQRIFDWVHYHILIRQVLRAELIVGLAILITEHIGTSKLPTVSARVAKLVAFHLAMQAHLIASEETGFHTKGGRYKPNPLIYDFGRAHFLQNQMSVMYELLDLAGRSSLMIPSEGQWDDSQSGQWFVKLNNGPKGNPRERVQIGRVIRDLYLTDWGGRQFMFENFNGTPLFAVFAATMTRDDMSAAGTYGKFASQVCGIEFGGAEPTAYAATADYAKALDKGLAPEPAAAESATS
GMSGDILNDIVAACLELERKASSVFKMFAAHAGSDEARRFWETVADETRHHSAVYERLQERGGRENLPIIIYKPAETLEELEMIGKSIDEQVERYTEAPSSEAACLLGFRLQLYLLHPAFASLCRLTRDASGEDLPDIGYGRYLRRFIDGIGSCGLATAETELLGEALFRLWNEARQLAAQSHFDALTGVMTRAGFFKTVGSLAYAAQRSGSNVGIMLIDLDYFKLVGDNYGHQTGDRILQLVAETITSHLRRSDVVGRYDGDEFVVYLSPVEPASLRTVAENLRRSIEEESARMVPVTASIGVAQGILGTDVDGGIEELVRLADECLMQAKYTGKNKVVVK
MEAVKTFNSELYSLNDYKPPISKAKMTQITKAAIKAIKFYKHVVQSVEKFIQKCKPEYKVPGLYVIDSIVRQSRHQFGQEKDVFAPRFSNNIISTFQNLYRCPGDDKSKIVRVLNLWQKNNVFKSEIIQPLLDMAAALEHHHHHH
MSLSKVYLVPTPIGNLGDITLRALEVLKNVDLIAAEDTRQTLKLLNHFEIKKPLISYHKHNEQGKGEEILRRVKEGTSVAIVSDAGTPGISDPGSVVVEKCIEEGIEFEVLPGATAFTTALIYSGLDTTKFMFKGFFPRENKDKRSFIEDIKDRTETIIIYESPYRILDTIDTLKEGLGNRKVAICRELTKLHEEIFRGTLEEAKIHFEENAPKGEFVCVISGKTDKEIEEENTSKWISMSIEEHIIHYIDNEGMKKKDAIKQVAKDRGVAKSEIYKFSLDEGHHHHHH

Soluble on expression in E. coli, not soluble:
MGSDKIHHHHHHMLGRSANGIFWLFRYLERAENSARAIEAGFRLALTRDASDASDEWRSLIVTLGLQNAYEAKYGPGFTGPHVFNFILRDRENPGSVLAMMEMARTNARMVRAGITREVWESVNDGWMKLREALARPVTETRLGDVLDLVRRQSTQVRGAIEGTMLRNEIYNFARLGSFIERADNTARILDVKYYVLLPSVSYVGSSLDNVQWENVLRSLAGERAYRWLNAGRMDPRGIAEFLILDERFPRSLAFCYSKLRSNLASLAREYGGEMHSHEILRDADTQLHTATIEAIFDQGLHEFIGKFIACNTALALQIQRDYRFTE
MGSDKIHHHHHHMNGIGATPYSESQKFHIAAIILAAGFSLRMKSFKPLLPLGSASVIETAIQSFRKAGFMDIRVVLGHKAGELLPICDALGVQPILNEDYAEGMFSSVKAGVKSLGREVDGFFLLPADNPLIQADTLQRLYEGFNLGPGGIVYPVCQGKRGHPPLISRSYRDSILSWRGEGGLRALLEHYQADALEVGTEDQGVLLDMDTPEDYRTLLKHYGCAPTPTEFECYELLKGNNTPDQVIKHCETVARLSVFLGEQLSEAGLHLNRELLRTSALLHDIARLKPNHPQEGAKLTAAYPEVSAIIAAHMDCPWEPSQPLTEQEIVYLADKLVAKERIVSLQERFKGSVERHQNEPEVLEHVYRRFGQAYRIHDRVEEILGKSVQTLIKSNLGSDVHG
RDILEVLQDIHMETGETVAIATKNDIYLQYIQIIESVHALRFHVDENAIRPLTMSSNGWMLMSTMNDKAIDNTVRRANTITQKDGIRFEVDDMMARIRQVREQGYASAEHIPFVGGGTICVLLPMTIQGQPVTMGLGGALDRIKQNYDRYLELLLNGVQQLKKSDSFHQPIELAH
MKMSELEKMLKGEHFDGASAEIEALRSQAGRLKLEINQSLDEAERYALQRELFGHLGHKSCVQPPFHCEFGKTIRIGDHTFINMNVVMLDGAPITIGDHVLIGPSTQFYTASHSLDYRRRQAWETICKPIVIEDDVWIGGNVVINQGVTIGARSVVAANSVVNQDVPPDTLVGGTPARILRSLKDPAESMAE
